Assay results from paper PMC5913134, “The IL-33-PIN1-IRAK-M axis is critical for type 2 immunity in IL-33-induced allergic airway inflammation” (Nature Communications, 2018).

What was measured:
PIN1-IRAK-M interaction = experiment: GST-PIN1 pulldown of IRAK-M from DC2.4 cell extracts; type: cell-based, C57BL/6; settings: 100 ng/ml, 1 h, DC2.4 extracts
Method: Fig. 2 IL-33 induces IRAK-M phosphorylation and binding to PIN1. a GST PIN1 pulldown assay with DC2.4 cell extracts either non-treated or treated with IL-33 (100 ng/ml) or LPS (100ng/ml) for 1 h. […] The cells were washed with fresh medium and treated with 100 ng/ml IL-33 for the indicated times prior to IRAK-M immunoprecipitation. d DC2.4 cells stably expressing IRAK-M were treated with IL-33 and at the indicated time points were subjected to CO-IP using anti-PIN1 antibody and blotted for IRAK-M. e HEK293 cells were transfected with different IRAK-M constructs expressing the N’ terminal domain (aa1-220), the middle portion of the protein (aa220-440) or the C’ terminal domain (aa 440-630), and then treated with IL-33, followed by CO-IP for PIN1. f DC2.4 cells stably expressing IRAK-M were treated with IL-33 and subjected to GST or GST-PIN1 pull-down.
Glutathione-Sepharose 4B (Amersham) coupled with glutathione S-transferase (GST) or GST-PIN1 and washed with 150 mM NaCl, 20 mM Tris-HCl (pH 8), 1 mM MgCl2, and 0.1% NP-40 was mixed with 1 mg of total protein extract for 3 h at 4 °C. The beads were then washed extensively, and the protein was eluted with 20 mM reduced glutathione. The proteins were resolved by SDS-PAGE and visualized by Western analysis or autoradiography. […]

[1] = system: WT, PIN1 KO and IRAK-M KO mice; experiment: IL-33-induced airway inflammation in mice; type: in vivo, mouse; settings: for BALF TH2 cytokines (IL-4, -5 and -13): IL-33 intranasal
Method: (§1) Male mice in each group, 3-5 weeks old were anesthetized using Isoflurane. The mice were treated intranasal with 200ng/mice/day for four continues days. By the fifth day the mice were killed by CO2 suffocation, and bronchial alveolar lavage fluid (BALF) was extracted using PBS. The lungs were extracted and fixed using 10% para formaldehyde. Immunofluresence of slide sections was performed. Slides were analyzed using anti-PIN1 antibodies and anti-IRAK-M antibodies or IgG as control and were counterstained using DAPI. In some cases, cells obtained from BALF were cytospined and the cells were fixed and stained in the same manner. For staining of the cells, Diff-Quick (Diff-Quik) Staining Protocol were used. All animal work was carried out in compliance with the ethical regulations approved by the Animal Care Committee, Beth Israel Deaconess Medical Center, Boston, MA, USA. The permission was granted to perform animal experiments by the Institutional Animal Care and Use Committee at Beth Israel Deaconess Medical Center, Boston, MA, USA.

[2] = system: mouse embryonic fibroblasts (MEFs); experiment: IL-6 secretion by MEFs; type: cell-based; settings: PIN1 KO MEFs, all IL-33 concentrations tested, 24 h
Method: Fig. 1 PIN1 is required for IL-33 to induces TH2 polarization and allergic inflammation. a 5 and15 min after IL-33 treatment of DC2.4 cells, cells were extracted and PIN1 activity was measured as previously described. Inset: PIN1 was immune precipitated and immune blotted for PIN1 or Ser71 phosphorylation as indicated. b WT and PIN1 KO MEF’s were treated with different concentrations of IL-33 for 24 h and the medium was measured for IL-6 secretion. c WT and PIN1 KO mice were treated with 200 ng/mice/day for 4 consecutive days and the BALF was examined for IL-4, 5, 6 and 13 by ELISA. d H&E staining representative of lungs from WT and PIN1 KO mice treated with IL-33 (n = 4). Scale bar = 50 µm. e Total cell number in the BALF of WT and PIN1 KO mice was measured using HEMAVET multispecies hematology analyzer. f Eosinophil cell number in the BALF of WT and PIN1 KO mice was measured using HEMAVET multispecies hematology analyzer. g Representative H&E staining of lung sections from WT and PIN1 KO mice after OVA-induced allergic asthma (n = 4). Scale bar = 50 µm. h IL-4, -5, -13 and IL-33 levels in the BALF of WT and PIN1 KO mice after OVA-induced allergic asthma. […] The data were analyzed by a Student’s two-tailed t test unless stated otherwise, and the values are reported as mean ± standard errors of the means (SEM). *- statistical significance (P < 0.05), **- significance (P < 0.01)

[3] = system: CD11c^+ CD11b^+ CD205^+ cells; experiment: Flow analysis of lung CD11c+ dendritic cells after IL-33 challenge; type: in vivo, mouse; settings: for change in CD11c^+ CD11b^+ CD205^+ cells: IL-33, n = 3
Method: as §1
Lungs were digested using Kollagenase D and dispase and the dendritic cells populations (CD11c^+ CD205^+ CD11b^+) were determined by staining the cells using the following antibodies: PE anti mouse CD11c (catalog number 117307), APC anti mouse CD205 (catalog number 138205), FITC anti mouse CD11b (catalog number 101205). For co stimulatory protein expression, FITC anti mouse CD40 (catalog number 124607), FITC anti mouse CD80 (catalog number 104705), FITC anti mouse CD86 (catalog number 105005) were used. For T cell (CD3^+ CD4^+) population isolation, the cells were stained with APC anti mouse CD3^+ (catalog number 100235) FITC anti mouse CD4^+ (catalog number 100405) before the cells were cell sorted. Human BALF samples were stained with FITC anti human CD15 (catalog number 301903) or FITC anti human CD205 (catalog number 342206). All antibodies were purchased from Biolegend and diluted according to manufacture instruction (1:100 dilution). Cells were analyzed using LSRII flow cytometer and FlowJo software. For cytospin the cells were spun onto glass slides, air dried and fixed using 4%PFA and stained with the indicated antibodies.

B1: IL-33: Recombinant mouse IL-33 purchased from BioLegend (protein, UniProt Q8BVZ5 1-266, looked up)
Interleukin-33: MRPRMKYSNSKISPAKFSSTAGEALVPPCKIRRSQQKTKEFCHVYCMRLRSGLTIRKETSYFRKEPTKRYSLKSGTKHEENFSAYPRDSRKRSLLGSIQAFAASVDTLSIQGTSLLTQSPASLSTYNDQSVSFVLENGCYVINVDDSGKDQEQDQVLLRYYESPCPASQSGDGVDGKKLMVNMSPIKDTDIWLHANDKDYSVELQRGDVSPPEQAFFVLHKKSSDFVSFECKNLPGTYIGVKDNQLALVEEKDESCNNIMFKLSKI
PIN1-IRAK-M interaction (PIN1-IRAK-M interaction): specific interaction
response (infiltrates, cell counts) ([1]; PIN1 KO mice, intranasal 200 ng/mice/day, 4 days): very mild responses
BALF TH2 cytokines (IL-4, -5 and -13) ([1]; PIN1 KO or IRAK-M KO mice): dramatically attenuated
BALF TH2 cytokines (IL-4, -5, -6 and -13) ([1]; PIN1 KO vs WT mice, IL-33 intranasal 200 ng/mice/day, 4 days): drastically lower
BALF TH2 cytokines (IL-4, -5 and -13) ([1]; WT mice): high levels of TH2 cytokines
lung inflammation ([1]; WT mice, intranasal 200 ng/mice/day, 4 days): moderate to severe inflammation and high levels of infiltrating cells, especially eosinophils
lung inflammation and bronchial remodeling ([1]; WT mice, intranasal IL-33): severe lung inflammation and bronchial remodeling
IRAK-M expression in lung cells ([1]; WT mice, intranasal IL-33, immunostaining): dramatically increased IRAK-M expression
lung expression of Il6, Csf3, Cxcl2 and Ccl5 ([1]; WT mice, whole lung tissue, qRT-PCR): upregulated
IL-6 secretion in response to IL-33 [2]: abolished IL-6 secretion
change in CD11c^+ CD11b^+ CD205^+ cells ([3]; IRAK-M KO mice): non significant (NS) increase
CD40 and CD80 overexpression in lung CD11c^+ cells ([3]; IRAK-M KO mice, IL-33 treated, n=3): attenuated
change in CD11c^+ CD11b^+ CD205^+ cells ([3]; PIN1 KO mice): more moderate increase
CD40 and CD80 expression in lung CD11c^+ cells ([3]; WT mice, IL-33 treated, n=3): elevated
induction of CD11c^+ CD11b^+ CD205^+ cells ([3]; WT mice, IL-33 vs PBS, n = 3, P < 0.05): 3 fold
